Measurements published in PMC6450106.

Biological target: CAP256 gp140-FL-IP (soluble Env) (HIV-1 (CAP256 SU, subtype C))
Experiment: native gel or EMSA; NativePAGE Novex 3 to 12% bis-Tris gels, Coomassie stain or anti-gp120 blot, molecular weight against NativeMark standard; protein after GNL affinity and SEC (Superdex 200 HiLoad 16/600)

## CAP256 gp140-FL-IP (soluble Env) (domain or fragment)
  stoichiometry N: 3
